Results: doi:10.1101/2023.03.10.531533 (bioRxiv, 2023)

Legend:
[1] = molecular target: recombinant SARS-CoV-1 spike protein (SARS-CoV-1, isolate , UniProt P59594, stabilised); assay: ELISA
[2] = molecular target: mouse Fc-tagged SARS-CoV-2 RBD (SARS-CoV-2, Wuhan-Hu-1 (assumed from …, UniProt P0DTC2)); assay: ELISA
[3] = molecular target: HR2 protein, residues H1159-K1211 of the SARS-CoV-2 spike (SARS-CoV-2, UniProt P0DTC2); assay: crystal structure

B1: VHH R3DC23 (VHH)
VHH: QVQLQESGGGLVQAGDSLTLSCAVSGRIFSTYTMGWFRQAPGKEREFVAAVRWGAGTIYYADSMKGRFTISRDSAKNTVDLQMNSTKPEDTAVYYCGAAYVSKANYGSLWYQDSRRYDYWGQGTQVTVSS
**Q.** What does the source list for B1?
**A.** binding result [1]: binds; binding result [2]: no binding; binding result [3]: binds
